Results reported in the supplement of paper PMC10567573.
± gives the standard deviation.

Assay: protein stability index of a GFP-peptide fusion (GPS, HEK-293T) (PSI 1-6); higher = more stable
[1] = treatment: DMSO, c terminus: a fixed tail appended
[2] = treatment: MLN4924 1 uM, 8 h, c terminus: a fixed tail appended
[3] = treatment: DMSO, c terminus: native
[4] = treatment: MLN4924 1 uM, 8 h, c terminus: native
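Also: 24-mer peptide tiles fused after GFP, lentivirally expressed, FACS-sorted into six equal bins by GFP/DsRed ratio, decoded by Illumina sequencing, PSI is the read-weighted mean bin number.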

Row | Sequence | protein stability index [1] | protein stability index [2] | protein stability index [3] | protein stability index [4]
1 | YTFIIVPKMLVDLLSQKKTISFLG [OR10K2] | 3.09 ± 0.14 | 2.7 ± 0.28 | – | –
2 | EEKAFESVIEPVQESSFRSRKIAV [MIA2] | 4.31 ± 0.16 | 4.11 ± 0.22 | – | –
3 | MILLVNLFVLLSVVCVLLNLAGFI [FAM189A2] | 3.03 ± 0.34 | 3.14 ± 0.47 | – | –
4 | KLATQHKQLISQTKKKQWCYNCEE [ZMYND11] | 3.48 ± 0.4 | 3.8 ± 0.23 | – | –
5 | MSHKQIYYSDKYDDEEFEYRHVML [CKS1B] | 2.52 ± 0.17 | 2.66 ± 0.18 | – | –
6 | WNDLRPKLSCLFAGPHSTLTPPCS [SNX8] | 2.27 ± 0.29 | 2.27 ± 0.39 | – | –
7 | AQEPSAVPRAGPLTVNTEAQQLLR [FOXJ1] | 4.62 ± 0.39 | 4.9 ± 0.17 | – | –
8 | GRTCITDLQLTVGGAQASGTLIGV [MFSD9] | 2.33 ± 0.31 | 2.04 ± 0.3 | – | –
9 | QVHRQGERRRELVRSQTLPRTSEA [SMTNL2] | 4.957 ± 0.024 | 4.98 ± 0.16 | – | –
10 | QHPDMSVTKVVVHKETEITPEDGE [EPB41L3] | 5.33 ± 0.23 | 5.39 ± 0.21 | – | –
11 | SKNDNGKPDSVGLPPCAVRNLQDL [PCMTD1] | 4.85 ± 0.44 | 4.58 ± 0.35 | – | –
12 | PVTNNLLEKCKTLVSQSNDLSSLR [SPACA9] | 3.04 ± 0.2 | 3.14 ± 0.24 | – | –
13 | LALRQGVEADINGLRRVLDELTLA [KRT15] | 2.51 ± 0.26 | 2.65 ± 0.4 | – | –
14 | HMEALEIAANLENKATNTDHLTTV [C8orf76] | 4.76 ± 0.18 | 4.78 ± 0.23 | – | –
15 | TLQQFNIKLRPPGAEKPSWLEEQ [ARFIP2] | – | – | 3.55 ± 0.34 | 3.62 ± 0.35
16 | LQSCGDLHTFTPAGRPRAERRPRR [FAM189A2] | 4.95 ± 0.27 | 5.07 ± 0.23 | – | –
17 | RMIFKLFSQETVMKFVPRYSLVLE [APMAP] | 2.74 ± 0.55 | 2.51 ± 0.37 | – | –
18 | KPLDLSDSTLSYTETEATNSLITA [SMAD6] | 4.82 ± 0.2 | 4.92 ± 0.059 | – | –
19 | RLLMSQADKMTAEEVDQMFQFASI [MYL5] | 3.06 ± 0.26 | 3.1 ± 0.37 | – | –
20 | MKDRLAELLDLSKQYDQQFPDGDD [STX11] | 4.77 ± 0.33 | 4.89 ± 0.15 | – | –
21 | QKENVFKCDSLKEECIPEHMVRES [FAN1] | 4.56 ± 0.38 | 4.56 ± 0.19 | – | –

Row | Sequence | protein stability index [1] | protein stability index [2] | protein stability index [3] | protein stability index [4]
22 | PVVWWLNLLSIALYLLSGSIIAVA [POMT2] | 3.27 ± 0.14 | 3.43 ± 0.18 | – | –
23 | PAMGLQKKLRLNGGRNPYEGRVEV [LOXL2] | – | 4.08 ± 0.88 | – | –
24 | ESSDDDSEEAPSTSGMGFHAPKIG [SDE2] | 5.51 ± 0.23 | 5.41 ± 0.19 | – | –
25 | IFHSRTSLQKLSTKLSAQSAQYSQ [FCHSD1] | 2.91 ± 0.17 | 2.98 ± 0.34 | – | –
26 | KYENELALRQSVEADINGLRRVLD [KRT13] | 3.57 ± 0.17 | 3.65 ± 0.29 | – | –
27 | PKGSLSMGPAPRARPWTRDSASLP [RASAL3] | 3.81 ± 0.13 | 4.04 ± 0.4 | – | –
28 | LEPGSADPLANGCQGVSEAAHRLA [PSD2] | 5.22 ± 0.075 | 5.23 ± 0.24 | – | –
29 | QVYLSHTAWTEACQVEVRLLLAYN [INTS4] | 3.15 ± 0.51 | 3.09 ± 0.19 | – | –
30 | RNGGKYCEGRRTRFRSCNTEDCPT [ADAMTS4] | 4.15 ± 0.34 | 4.09 ± 0.32 | – | –
31 | ADGQESTPPTPAPTSGIVGALMEV [WASL] | 4.86 ± 0.1 | 4.56 ± 0.17 | – | –
32 | RMENVTVLGEDVIVNDELYLNGAS [GMPPB] | 4.09 ± 0.072 | 4.1 ± 0.29 | – | –
33 | FGHLINGAIAVFVYASDKEWIRFD [PTGFR] | 3.1 ± 0.29 | 3.1 ± 0.38 | – | –
34 | CLQQKQVVAEAQTRVSQLGLQVEG [LRRC45] | 3.86 ± 0.24 | 3.8 ± 0.38 | – | –
35 | HRKRGSQPPDMASALTDRTSRAPS [RSPH3] | 4.89 ± 0.17 | 4.95 ± 0.18 | – | –
36 | GAEQPPDLHCVLVTNPHSSQWKDP [GADD45A] | 4.29 ± 0.2 | 4.44 ± 0.12 | – | –
37 | NMERFGEDNLEDDDVEMKNGITQG [CDC14A] | 5.54 ± 0.19 | 5.53 ± 0.23 | – | –
38 | NPAVRTAAANAAAGAAENAFRAP [SCAMP3] | – | – | 3.08 ± 0.69 | 3.36 ± 0.55
39 | SNPGPVPGSSSGPVLGSSSGAGHG [SPAG8] | 5.051 ± 0.027 | 4.7 ± 0.35 | – | –
40 | VVHVSFPEVTSALLESLNQQRLQG [ZBTB22] | 2.27 ± 0.28 | 2.41 ± 0.21 | – | –
41 | LTRPVPAGADLPPPKIRLKPHRLG [PWWP2B] | 3.91 ± 0.29 | 3.73 ± 0.21 | – | –
